# Experimental data from publication PMC11507936.
# Molecular target: non-structural protein 3 (Nsp3) ubiquitin-like domain 1 (Ubl1), 1-111
substance,measurement,value
Nucleocapsid protein (N) (from UniProt P0DTC9),other: partition coefficient,weaker; reference 12.6 ± 0.1
